# Reference: patent publication US20050136043A1, “TGFbeta signaling inhibitors” (Ludwig Institute for Cancer Research, priority 2003, published 2005)
# Legend:
# Assay in all cases: In vitro kinase assay (autophosphorylation) of receptor expressed in COS-7 cells
# Format in all cases: biochemical
# Settings in all cases: 10 μM peptide, FIG. 5
# ALK-7 = molecular target: T1, ALK-7 (Homo sapiens, UniProt Q8NER5)
# T1 construct: made in house; host or cells: COS-7 cells (transfected, immunoprecipitated)
# T1 sequence (Q8NER5 21-493): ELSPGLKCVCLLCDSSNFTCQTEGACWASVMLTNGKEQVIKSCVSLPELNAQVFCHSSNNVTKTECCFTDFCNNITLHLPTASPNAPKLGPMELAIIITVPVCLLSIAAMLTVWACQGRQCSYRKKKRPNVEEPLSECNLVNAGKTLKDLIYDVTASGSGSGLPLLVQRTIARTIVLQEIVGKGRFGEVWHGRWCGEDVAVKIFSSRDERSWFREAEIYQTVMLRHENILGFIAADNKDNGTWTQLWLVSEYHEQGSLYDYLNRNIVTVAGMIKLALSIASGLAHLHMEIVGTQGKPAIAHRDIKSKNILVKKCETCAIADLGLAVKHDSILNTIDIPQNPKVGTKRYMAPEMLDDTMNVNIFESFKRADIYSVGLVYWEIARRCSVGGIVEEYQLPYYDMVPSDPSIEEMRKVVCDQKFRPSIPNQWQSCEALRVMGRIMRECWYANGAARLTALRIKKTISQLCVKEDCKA
# Method: (§1) For in vitro kinase assay of type I and type II TGFβ family receptors, p38α and SAPKα2 kinases, COS-7 cells were transfected with the kinase expression vectors or the control empty pcDNA3 vector using the DEAE-dextran method. Proteins were extracted in a lysis buffer (50 mM Tris-HCl, pH 7.5, 50 mM NaCl, 1% NP-40, 10 μg/mL aprotinin, 0.1 mM PMSF). HA-tagged proteins (ALK1 to ALK7, p38R, SAPKR2) were immunoprecipitated with anti-HA antibody (12CA5; Roche); His6-tagged proteins (type II receptors) were precipitated with Ni-NTA agarose (Qiagen). The precipitates were washed in extraction buffer, with 20 mM imidazole for Ni-NTA agarose-precipitated proteins, and two times with kinase buffer (20 mM HEPES, pH 7.4, 10 mM MgCl2, 2 mM MnCl2, 1 mM DTT). The kinase reaction was initiated by addition of 20 μL of kinase buffer containing 0.5 μCi of [γ-32P]ATP, 5.0 μM ATP, and inhibitory peptides at a final concentration of 10 μM. The reaction was performed at 22° C. for 20 min and terminated by addition of SDS-containing sample buffer and boiling for 5 min. The reaction products were analyzed by SDS-PAGE and exposure in a Fuji X2000 phosphorimager. Equal loading was controlled by immunoblotting aliquots of the samples with a HA probe (Y-11; Santa Cruz) or anti-His antibody (Qiagen).
# (§2) To evaluate whether the substrate-mimicking peptides affect kinases of type I and type II reptors of the TGFβ family, we studied the influence of peptides on authophosphorylation of all known mammalian type I receptors [ALK-1, ActR-I (ALK-2), BMPR-IA (ALK-3), ActR-IB (ALK-4), TβR-I (ALK-5), BMPR-IB (ALK-6), and ALK-7], TβRII, ActR-II, BMPR-II, p38R, and SAPKR2 (FIG. 5). The kinases were expressed in COS-7 cells and purified by using specific anti-tag antibodies or Ni-NTA agarose, and kinase activity was tested in the presence of peptides.
# ActR-I (ALK-2) = molecular target: T2, ActR-I (ALK-2) (Homo sapiens, UniProt Q04771)
# T2 sequence (Q04771 21-509): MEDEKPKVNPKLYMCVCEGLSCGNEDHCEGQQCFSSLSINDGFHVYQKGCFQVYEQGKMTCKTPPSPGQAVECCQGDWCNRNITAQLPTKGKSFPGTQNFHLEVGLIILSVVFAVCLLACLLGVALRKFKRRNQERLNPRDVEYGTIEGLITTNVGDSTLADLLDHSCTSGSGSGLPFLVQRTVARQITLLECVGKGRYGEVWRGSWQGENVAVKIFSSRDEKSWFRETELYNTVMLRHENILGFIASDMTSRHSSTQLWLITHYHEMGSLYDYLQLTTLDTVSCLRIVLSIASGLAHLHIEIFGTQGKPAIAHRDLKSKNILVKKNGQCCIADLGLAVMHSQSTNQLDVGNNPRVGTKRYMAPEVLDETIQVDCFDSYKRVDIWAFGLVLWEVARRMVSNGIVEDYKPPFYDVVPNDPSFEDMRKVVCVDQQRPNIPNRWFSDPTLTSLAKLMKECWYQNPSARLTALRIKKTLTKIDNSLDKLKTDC
# Method: as §1, §2
# ActR-II = molecular target: T3, ActR-II (Homo sapiens, UniProt P27037)
# T3 construct: made in house; host or cells: COS-7 cells (transfected, Ni-NTA precipitated)
# T3 sequence (P27037 20-513): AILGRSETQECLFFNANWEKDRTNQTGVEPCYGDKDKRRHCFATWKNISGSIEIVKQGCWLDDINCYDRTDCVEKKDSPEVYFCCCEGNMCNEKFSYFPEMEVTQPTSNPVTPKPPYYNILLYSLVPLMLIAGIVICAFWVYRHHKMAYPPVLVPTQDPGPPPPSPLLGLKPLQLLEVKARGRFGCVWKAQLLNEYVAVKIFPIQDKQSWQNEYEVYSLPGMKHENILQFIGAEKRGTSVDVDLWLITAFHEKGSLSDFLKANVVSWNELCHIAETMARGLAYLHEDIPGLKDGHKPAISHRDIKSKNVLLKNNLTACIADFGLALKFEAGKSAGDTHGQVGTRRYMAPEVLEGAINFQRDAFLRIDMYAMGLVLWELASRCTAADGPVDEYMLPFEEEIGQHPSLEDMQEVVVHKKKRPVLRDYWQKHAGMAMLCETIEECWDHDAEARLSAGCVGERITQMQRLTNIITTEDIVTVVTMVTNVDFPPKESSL
# Method: as §1, §2
# BMPR-IA (ALK-3) = molecular target: T4, BMPR-IA (ALK-3) (Homo sapiens, UniProt P36894)
# T4 construct: made in house; host or cells: COS-7 cells (transfected, immunoprecipitated)
# T4 sequence (P36894 24-532, species assumed): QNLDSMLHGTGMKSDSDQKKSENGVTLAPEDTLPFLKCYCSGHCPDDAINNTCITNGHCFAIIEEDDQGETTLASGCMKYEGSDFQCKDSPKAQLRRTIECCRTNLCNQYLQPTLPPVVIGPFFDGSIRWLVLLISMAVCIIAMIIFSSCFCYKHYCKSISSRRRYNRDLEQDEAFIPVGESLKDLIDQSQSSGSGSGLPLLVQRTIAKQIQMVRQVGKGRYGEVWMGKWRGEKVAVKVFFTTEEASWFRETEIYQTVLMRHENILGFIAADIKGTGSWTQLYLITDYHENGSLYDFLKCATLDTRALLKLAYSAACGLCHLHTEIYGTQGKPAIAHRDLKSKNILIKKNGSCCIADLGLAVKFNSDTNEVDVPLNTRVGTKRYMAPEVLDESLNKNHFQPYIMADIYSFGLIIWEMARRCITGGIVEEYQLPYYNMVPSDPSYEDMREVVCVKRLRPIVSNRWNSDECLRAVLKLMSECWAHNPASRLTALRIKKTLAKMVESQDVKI
# Method: as §1, §2
# TβR-I (ALK-5) = molecular target: T5, TβR-I (ALK-5) (Homo sapiens, UniProt P36897)
# T5 construct: made in house; host or cells: COS-7 cells (transfected, immunoprecipitated)
# T5 sequence (P36897 34-503): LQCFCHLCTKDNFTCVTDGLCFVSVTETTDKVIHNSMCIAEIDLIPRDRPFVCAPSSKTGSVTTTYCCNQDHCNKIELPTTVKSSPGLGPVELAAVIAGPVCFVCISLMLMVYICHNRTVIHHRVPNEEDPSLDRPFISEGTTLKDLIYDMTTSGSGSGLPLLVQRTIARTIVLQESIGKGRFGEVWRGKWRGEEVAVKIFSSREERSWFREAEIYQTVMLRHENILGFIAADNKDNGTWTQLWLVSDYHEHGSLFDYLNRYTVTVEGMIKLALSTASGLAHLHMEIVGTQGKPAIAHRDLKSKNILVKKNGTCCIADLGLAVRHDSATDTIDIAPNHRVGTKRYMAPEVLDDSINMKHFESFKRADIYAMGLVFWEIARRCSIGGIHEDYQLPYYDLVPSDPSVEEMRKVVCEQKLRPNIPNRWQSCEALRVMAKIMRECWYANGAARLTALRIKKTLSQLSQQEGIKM
# Method: as §1, §2
# TβRII = molecular target: T6, TβRII (Homo sapiens, UniProt P37173)
# T6 construct: made in house; host or cells: COS-7 cells (transfected, Ni-NTA precipitated)
# T6 sequence (P37173 23-567, species assumed): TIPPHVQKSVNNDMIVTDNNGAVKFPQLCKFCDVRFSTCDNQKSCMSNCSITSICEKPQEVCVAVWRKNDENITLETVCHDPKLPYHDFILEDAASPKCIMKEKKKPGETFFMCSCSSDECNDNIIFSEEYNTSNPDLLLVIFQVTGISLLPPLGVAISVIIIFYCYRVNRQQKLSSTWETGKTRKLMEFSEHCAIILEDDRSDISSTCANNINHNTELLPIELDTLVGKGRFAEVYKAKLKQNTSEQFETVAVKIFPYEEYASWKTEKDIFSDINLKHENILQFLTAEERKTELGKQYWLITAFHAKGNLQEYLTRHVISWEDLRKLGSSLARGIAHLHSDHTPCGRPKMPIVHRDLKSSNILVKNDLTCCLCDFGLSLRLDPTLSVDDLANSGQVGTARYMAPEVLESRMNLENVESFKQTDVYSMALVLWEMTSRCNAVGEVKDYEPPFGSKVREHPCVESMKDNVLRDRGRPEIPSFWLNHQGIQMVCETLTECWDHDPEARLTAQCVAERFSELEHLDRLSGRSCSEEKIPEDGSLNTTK
# Method: as §1, §2
Effect on ALK-7 kinase (ALK-7),Effect on ActR-I (ALK-2) kinase (ActR-I (ALK-2)),Effect on ActR-II kinase (ActR-II),Effect on BMPR-IA (ALK-3) kinase (BMPR-IA (ALK-3)),Effect on TβR-I kinase (TβR-I (ALK-5)),Effect on TβRII kinase (TβRII),Sequence
without any effect,without any effect,without any effect,without any effect,inhibited,without any effect,RQIKIWFQNRRMKWKKTQMGSPSVRCSAMA (listed as Homo sapiens) [antp-Sm2A]
without any effect,without any effect,without any effect,without any effect,inhibited,without any effect,"RQIKIWFQNRRMKWKKTQMGSPSVRCSSMS (listed as Homo sapiens) [antp-Sm2S, penetratin fused to the C-terminus of wild-type Smad2]"
